For orientation: Kd means a measure of binding affinity in units of concentration. A high value points to lower affinity.

This is an account of results in article PMC1184220.

The target of data set [1] is T1, TIAR (TIAR-b, short isoform) (UniProt Q01085 1-375).
T1 sequence: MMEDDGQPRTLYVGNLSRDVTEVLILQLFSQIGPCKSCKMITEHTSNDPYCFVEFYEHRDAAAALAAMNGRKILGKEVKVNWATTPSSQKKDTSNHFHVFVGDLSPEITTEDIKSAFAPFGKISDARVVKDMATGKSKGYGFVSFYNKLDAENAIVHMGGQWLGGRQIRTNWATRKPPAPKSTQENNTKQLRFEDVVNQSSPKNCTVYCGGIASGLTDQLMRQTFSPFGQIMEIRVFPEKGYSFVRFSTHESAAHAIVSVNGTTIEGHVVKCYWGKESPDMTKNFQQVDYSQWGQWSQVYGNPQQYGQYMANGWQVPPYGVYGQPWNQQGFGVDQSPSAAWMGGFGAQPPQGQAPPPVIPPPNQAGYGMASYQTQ
In words: UV crosslinking.

In another data set the target is T2, TIA-1 (UniProt P31483 1-386).
T2 sequence: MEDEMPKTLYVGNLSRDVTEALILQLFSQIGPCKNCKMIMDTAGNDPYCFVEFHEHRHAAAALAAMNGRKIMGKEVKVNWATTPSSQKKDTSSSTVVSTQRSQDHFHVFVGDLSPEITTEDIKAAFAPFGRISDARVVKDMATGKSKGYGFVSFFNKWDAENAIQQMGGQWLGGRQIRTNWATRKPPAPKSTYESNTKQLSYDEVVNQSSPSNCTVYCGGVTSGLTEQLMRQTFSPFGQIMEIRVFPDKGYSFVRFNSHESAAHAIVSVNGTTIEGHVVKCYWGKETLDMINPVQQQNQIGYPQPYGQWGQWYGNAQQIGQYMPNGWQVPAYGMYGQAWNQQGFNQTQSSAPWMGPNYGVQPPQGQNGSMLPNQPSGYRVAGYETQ
Put plainly: UV crosslinking.

The next data set concerns the target T3, TIAR RRM1 (UniProt Q01085 2-93).
T3 sequence: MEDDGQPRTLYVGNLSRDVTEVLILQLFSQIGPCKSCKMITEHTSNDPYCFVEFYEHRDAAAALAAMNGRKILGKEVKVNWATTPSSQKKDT
Put plainly: UV crosslinking titration.

The target of data set [2] is T1, TIAR (TIAR-b, short isoform). In words: UV crosslinking + immunoprecipitation.
Data set [3] shares this target. Put plainly: UV crosslinking. This is another data set of the same source.
Data set [4] shares this target. Put plainly: competition.
Data set [5] shares this target. Put plainly: EMSA.
A further data set addresses HuR (UniProt Q15717 1-326). In words: UV crosslinking.
Data set [6] deals with T1, TIAR (TIAR-b, short isoform). Put plainly: UV crosslinking. This is another data set of the same source.
A further data set has as its target T4, TIAR RRM2,3 (UniProt Q01085 94-375).
T4 sequence: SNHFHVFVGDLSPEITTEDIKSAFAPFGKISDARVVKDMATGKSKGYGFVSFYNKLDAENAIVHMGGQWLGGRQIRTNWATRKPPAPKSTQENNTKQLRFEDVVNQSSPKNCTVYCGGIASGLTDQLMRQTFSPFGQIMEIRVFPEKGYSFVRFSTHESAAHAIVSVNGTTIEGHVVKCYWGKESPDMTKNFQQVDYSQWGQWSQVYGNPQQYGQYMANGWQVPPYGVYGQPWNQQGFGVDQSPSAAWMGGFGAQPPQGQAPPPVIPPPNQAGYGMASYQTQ
Put plainly: UV crosslinking titration.

HuR, sequence (Q15717 whole entry, canonical isoform): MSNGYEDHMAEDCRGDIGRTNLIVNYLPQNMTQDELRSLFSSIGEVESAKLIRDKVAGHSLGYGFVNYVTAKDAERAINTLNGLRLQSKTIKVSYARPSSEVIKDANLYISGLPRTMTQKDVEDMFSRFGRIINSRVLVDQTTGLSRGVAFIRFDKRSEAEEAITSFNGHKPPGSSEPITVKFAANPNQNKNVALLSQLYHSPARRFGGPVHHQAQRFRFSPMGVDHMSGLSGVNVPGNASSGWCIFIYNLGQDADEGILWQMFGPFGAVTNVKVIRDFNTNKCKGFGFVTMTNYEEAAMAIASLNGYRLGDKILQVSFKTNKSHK

Turning to TTAATATCTAAAATAAAATAAATT (ssDNA) [IL8-AS1], the binding result in [1] was “no binding”.
Turning to AAAAUGCUUUUUUUUUUUUA (ssRNA) [rVEGF-AS1], the binding result with TIA-1 is “binds”; in the data set with TIAR RRM1, “no binding”.
Turning to TTTTTTTTTTTTTTT (ssDNA) [oligo(dT)15], the binding result in [1] is “binds”.

B1: T7tiar/T7 partial duplex template (mixed)
DNA 1: AAGATGAGAATAGTATTTTTTTTTTTTCGTATTGGAACAATATAAACAATACTATCCCTATAGTGAGTCGTATTA
DNA 2: TAATACGACTCACTATAGGG
As for B1, the binding result in [2] is reported as “binds”.
On to CTTTTTTAATTTTAATATTTGTTATCATTTATTTATT (ssDNA) [VEGF-S2], for which the binding result in data set [3] is “binds”.
With AAAATGCTTTTTTT (ssDNA) [VEGF-AS1b.2], the binding result in data set [4] was “no binding”.
Consider AATAAATAAATGATAACAAATATTAAAATTAAAAAAG (ssDNA) [VEGF-AS2], for which the binding result (with TIA-1; in data set [5]; in the data set with TIAR RRM1; with HuR) was “no binding” throughout.

B2: VEGF-S2/VEGF-AS2 duplex (dsDNA)
DNA 1: CTTTTTTAATTTTAATATTTGTTATCATTTATTTATT
DNA 2: AATAAATAAATGATAACAAATATTAAAATTAAAAAAG
In the case of B2, the binding result in data set [6] is given as “no binding”.
Regarding AAAATGCTTTTTTTTTTTTA (ssDNA) [VEGF-AS1b], the binding result in [1] is “binds”.
Take AGAATTAAATTCTTTAATACAAAATGCTTTTTTTTTTTTA (ssDNA) [VEGF-AS1]: the figures for the binding result in the data set with TIA-1 and with HuR were “binds” and “no binding”, respectively. For the same molecule, the Kd with TIAR RRM2,3 worked out at 3 nM.

B3: T7tiar full-length transcript (ssRNA)
RNA: GGGAUAGUAUUGUUUAUAUUGUUCCAAUACGAAAAAAAAAAAAUACUAUUCUCAUCUU
Take B3: the binding result in data set [3] was “binds”.
TAAAAATAAATATGTACTACGGAATATCTCGAAAAAC (ssDNA) [VEGF-AS4]: in [1], the binding result is recorded as “no binding”.
